Measured values published in patent US20140314790A1 (ALBERT EINSTEIN COLLEGE OF MEDICINE OF YESHIVA UNIVERSITY, published 2014).

Experiments:
[1] = target: T1, amyloid precursor protein (APP), transfected into HeLa or HEK293 cells (UniProt P05067 18-770); test: α-Flag IP from HeLa/APP cells incubated with Flagged peptide, Western blot for APP
T1 construct: whole, on cells; Scheinfeld et al, 2002)'; also called mature APP; HeLa-APP

[2] = target: T2, β-CTF (C-terminal fragment of APP made by β-secretase cleavage) (UniProt P05067 672-770); test: α-Flag IP from HeLa/APP cells incubated with N3-2A-F, Western blot for APP-CTFs
T2 construct: domain: β-CTF; also called APP-CTF
T2 sequence (P05067 672-770 limits assumed): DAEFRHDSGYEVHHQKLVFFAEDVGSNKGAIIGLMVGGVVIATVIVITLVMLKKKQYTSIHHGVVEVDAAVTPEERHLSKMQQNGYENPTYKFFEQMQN

T1 sequence (P05067 18-770): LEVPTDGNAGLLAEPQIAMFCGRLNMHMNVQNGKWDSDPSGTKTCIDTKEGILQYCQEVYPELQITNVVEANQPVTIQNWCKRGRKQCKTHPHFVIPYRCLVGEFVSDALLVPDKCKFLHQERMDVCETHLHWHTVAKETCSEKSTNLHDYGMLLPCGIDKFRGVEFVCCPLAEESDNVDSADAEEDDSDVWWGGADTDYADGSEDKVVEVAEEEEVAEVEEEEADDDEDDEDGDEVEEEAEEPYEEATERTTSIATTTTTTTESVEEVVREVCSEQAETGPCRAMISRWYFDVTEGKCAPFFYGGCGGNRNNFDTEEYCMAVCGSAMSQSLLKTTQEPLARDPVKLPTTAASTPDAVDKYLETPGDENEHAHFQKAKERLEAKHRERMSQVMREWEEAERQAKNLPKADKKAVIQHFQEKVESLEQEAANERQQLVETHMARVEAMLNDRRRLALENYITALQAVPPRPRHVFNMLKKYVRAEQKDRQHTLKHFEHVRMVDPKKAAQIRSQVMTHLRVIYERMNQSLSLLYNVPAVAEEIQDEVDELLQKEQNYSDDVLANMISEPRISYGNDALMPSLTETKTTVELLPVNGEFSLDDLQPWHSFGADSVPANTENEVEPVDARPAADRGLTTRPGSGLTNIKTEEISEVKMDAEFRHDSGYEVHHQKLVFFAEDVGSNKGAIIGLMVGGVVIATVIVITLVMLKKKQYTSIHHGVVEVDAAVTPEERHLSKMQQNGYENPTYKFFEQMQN

Binder | binding result [1] | binding result [2]
DDVAYCGLKY (peptide, not shown: small tags and cut ends) [N3-4A-F (single amino acid N3 mutant N3-4A with Flag epitope)] | no binding (tested: 40 µM) | 
DAVYYCGLKY (peptide, not shown: small tags and cut ends, also called BRI2-derived peptide) [N3-2A fused to a C-terminal Flag epitope (N3-2A-F)] |  | no binding (tested: 40 µM)
